Measured values reported in article PMC9459030 (Journal of Ginseng Research, 2021).
Where no end group is shown, it is not given here. [ ]: non-standard residue; d: D form. pS = N[C@@H](COP(=O)(O)O)C(=O)O

Molecular target: T1, 14-3-3 ζ protein (UniProt P63104 1-245)
T1 sequence (looked up): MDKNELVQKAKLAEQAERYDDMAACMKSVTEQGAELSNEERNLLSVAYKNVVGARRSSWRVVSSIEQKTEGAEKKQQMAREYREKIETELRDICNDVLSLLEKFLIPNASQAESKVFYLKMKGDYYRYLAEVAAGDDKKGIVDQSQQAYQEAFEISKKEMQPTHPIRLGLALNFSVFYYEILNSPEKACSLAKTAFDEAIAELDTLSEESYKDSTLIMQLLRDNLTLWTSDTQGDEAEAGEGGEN
Experiment: BLI

Kd: 46.8 µM
koff: 0.0185 s⁻¹
kon: 579 M⁻¹ s⁻¹
B1: p-Ser9 GSK 3β polypeptide (Gly3-pSer9-Glu12) (peptide)
peptide: GRPRTT[pS]FAE
